From US10502741B2, “Means and methods for detecting activated MALT1” (Helmholtz Zentrum München Deutsches Forschungszentrum für …, priority 2014, dated 2019)

Experiments:
active MALT1 [1] = molecular target: T1, active MALT1 (Homo sapiens, UniProt Q9UDY8); assay: Labeling with diagnostic inhibitor in cell extracts (gel-based, fluorescence scan): active MALT1 band
T1 construct: endogenous in cells; host or cells: Jurkat T cells, primary human PBMCs and T cells, DLBCL cell lines (HBL1, TMD8, OCI-Ly3, OCI-Ly10, U2932, RIVA, BJAB, Su-DHL-4, Su-DHL-6)
T1 sequence (Q9UDY8 1-824): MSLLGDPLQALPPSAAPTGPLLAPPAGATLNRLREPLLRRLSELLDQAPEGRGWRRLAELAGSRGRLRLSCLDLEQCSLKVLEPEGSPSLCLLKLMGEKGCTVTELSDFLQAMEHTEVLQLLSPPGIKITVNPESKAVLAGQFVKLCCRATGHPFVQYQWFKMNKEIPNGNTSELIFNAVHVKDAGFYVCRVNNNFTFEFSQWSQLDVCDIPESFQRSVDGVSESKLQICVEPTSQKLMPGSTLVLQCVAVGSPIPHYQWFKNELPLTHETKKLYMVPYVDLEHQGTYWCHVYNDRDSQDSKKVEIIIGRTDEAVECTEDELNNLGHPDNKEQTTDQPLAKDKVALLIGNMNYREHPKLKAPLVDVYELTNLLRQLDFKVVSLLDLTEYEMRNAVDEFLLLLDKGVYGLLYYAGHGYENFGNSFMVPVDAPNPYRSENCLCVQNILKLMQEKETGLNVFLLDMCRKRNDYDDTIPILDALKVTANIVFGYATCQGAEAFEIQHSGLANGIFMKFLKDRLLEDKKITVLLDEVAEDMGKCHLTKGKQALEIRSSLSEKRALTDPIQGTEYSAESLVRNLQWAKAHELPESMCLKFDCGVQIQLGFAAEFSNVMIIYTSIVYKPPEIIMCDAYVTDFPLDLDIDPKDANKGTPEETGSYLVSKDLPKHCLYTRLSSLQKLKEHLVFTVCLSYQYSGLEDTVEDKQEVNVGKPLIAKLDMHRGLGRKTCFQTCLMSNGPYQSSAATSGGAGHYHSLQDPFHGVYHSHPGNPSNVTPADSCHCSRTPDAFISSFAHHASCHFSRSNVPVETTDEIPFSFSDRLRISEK
Experimental: (§1) Jurkat T cells were cultured in standard RPMI medium containing 10% FCS, 100 U/ml Penicillin/Streptomycin and 2 mM Glutamin. DNA transfection of 6 μg DNA in 8×10^6 Jurkat T cells was performed by electroporation in a GenePulser Xcell (BioRad) with a 220 Volt pulse. For siRNA experiments, Jurkat T cells were transfected with 100 nM siRNA and Atufect transfection reagent (Silence Therapeutics, Berlin). Jurkat T cells were stimulated either with 200 ng/ml PMA (phorbol 12-myristate 13-acetate) and 300 ng/ml Ionomycin (both Calbiochem) or CD3/CD28 antibody co-ligation (human CD3: 1 μg/ml; human CD28: 4 μg/ml; mouse IgG1: 2 μg/ml; mouse IgG2a: 2 μg/ml; BD Biosciences). DLBCL cell lines (HBL1, TMD8, OCI-Ly3, U2932, RIVA, BJAB, Su-DHL-4 and Su-DHL-6) were cultured in standard RPMI medium containing 20% FCS, 100 U/ml Penicillin/Streptomycin and 2 mM Glutamin. OCI-Ly10 cell line was cultured in IMDM containing 20% human serum, 100 U/ml Penicillin/Streptomycin, 2 U/ml heparine, 50 μM β-mercaptoethanol. Inhibitors 10 μM (z-VRPR-FMK, Mepazine, Thioridazine, CA-074Me) were added to the cells in media for 1 h, prior to stimulation and labeling with diagnostic MALT1 inhibitor.
(§2) Jurkat T cells (1-2×10^7), primary human PBMCs or primary human T cells (0.25 or 1×10^7) were lysed in 150 μl co-IP buffer without protease inhibitors. DLBCL (3×10^7) were lysed in 250 μl buffer. After centrifugation (14000 rpm, 10 min, 4° C.), 100 μl extract (DLBCL: 200 μl) was stained with probe 5 or probe 6 (3 μM end) for 50 min at 29° C., mixed with 4× loading dye and boiled.

cathepsin B [2] = molecular target: T2, cathepsin B (Homo sapiens, UniProt P07858); assay: Cathepsin B cleavage assay (zRR-AMC substrate); assay type: biochemical; design: purchased BioVision; conditions: 0.2 ng cathepsin B, 1 mM zRR-AMC, 2 h at 30° C.
Experimental: (§3) C) Impact of indicated compounds on MALT1, Caspase8 and cathepsin B was tested in in vitro cleavage assays using fluorescent substrates. Results and SD from three independent experiments are shown.
0.2 ng cathepsin B together with probe 5, z-VRPR-FMK (SEQ ID No. 6), mepazine or CA-074 was incubated with 1 mM zRR-AMC substrate for 2 h at 30° C. Assay was performed in 0.1 M sodium acetate pH 5.5, 10 mM DTT and 0.1 mM EDTA. Again, increase of AMC fluorescence is measured in a Synergy 2 Microplate Reader (Biotek).

cathepsin B [3] = molecular target: T2, cathepsin B; assay: Labeling with diagnostic inhibitor in cell extracts (gel-based, fluorescence scan): about 30 kDa cathepsin B band; design: endogenous in cells; host or cells: Jurkat T cells; HBL1 and other DLBCL cell lines
Experimental: as §1, §2

active MALT1 [4] = molecular target: T1, active MALT1; assay: ELISA-based assay (MALT1 ELASA) on streptavidin-coated plates with MALT1 antibody detection; assay type: cell-based; conditions: inhibitor-treated (10 μM) DLBCL cells, probe 7
Experimental: as §1
Untreated DLBCL (1×10^7), primary T cells (0.25×10^7) or Jurkat T cells (0.2-1×10^7) (stimulated or not) were lysed in 300 μl co-IP buffer without protease inhibitors, centrifuged, incubated with probe 7 (concentration as depicted) for 1 h at RT, then transferred to streptavidin-coated plates (96 well, clear) and incubated o/n at 4° C. After blocking with 2% BSA in PBS-T, detection was performed by incubation with MALT1 primary antibody (1 h, RT) and HRP-coupled secondary antibody (1 h, RT). […] was determined after TMB substrate incubation in a photometer (Bio-Tek).

MALT1 = molecular target: T3, MALT1 (Homo sapiens, UniProt Q9UDY8); assay: MALT1 in vitro cleavage assay using fluorescent substrate; assay type: biochemical
T3 construct: GST
T3 sequence (Q9UDY8 1-824): T1 sequence (Q9UDY8 1-824)
Experimental: as §3
Preferably, MALT1 activity is determined in a MALT1 cleavage assay. […] The assay may be performed in cleavage buffer comprising for example 50 mM MES, 1 M sodium citrate pH 7, 150 mM NaCl, 10% sucrose, 0.1% chaps, 10 mM DTT. Catalytically active MALT1 cleaves the substrate and an increase of AMC fluorescence can be measured.

[5] = HBL1 cells, inhibitors 10 μM each

- effect of inhibitor on probe 6 labeling of active MALT1 (active MALT1 [1]; [5]): sensitivity
- effect of inhibitor on the about 30 kDa cathepsin B signal labeled by probe 6 (cathepsin B [3]; [5]): sensitive
- effect of inhibitor pretreatment on the band below 34 kDa (cathepsin B) labeled by probe 5 (cathepsin B [3]; Jurkat T cells, 10 μM inhibitor, probe 5): reduced
- effect of inhibitor on active MALT1 signal in DLBCL cells (active MALT1 [4]): strongly reduced
- inhibition of MALT1 protease activity in vitro (MALT1): inhibit MALT1
Substance: z-VRPR-FMK (Z N-terminal cap, FMK warhead)
- effect of inhibitor pretreatment on probe 5 labeling of active MALT1 (active MALT1 [1]; Jurkat T cells, 10 μM inhibitor before stimulation, probe 5): prevents binding of diagnostic MALT1-inhibitor
- inhibition of cathepsin B activity in vitro (cathepsin B [2]): abrogated cathepsin B activity even though slightly less efficient
